These results are taken from US20200031919A1 (SUZHOU KANOVA BIOPHARMACEUTICAL, published 2020).

This assay concerns the target T1, human IL-17A (human, UniProt Q16552 24-155).
T1 construct: Commercial recombinant protein; also called hIL-17A; CTLA-8
T1 sequence (looked up): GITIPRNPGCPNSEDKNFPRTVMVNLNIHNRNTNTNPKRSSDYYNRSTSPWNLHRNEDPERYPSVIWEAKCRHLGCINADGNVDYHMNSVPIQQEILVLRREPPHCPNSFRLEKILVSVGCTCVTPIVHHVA
The assay is described as follows: SPR (Biacore T200), antibody captured by anti-human Fc, IL-17 as analyte. On the procedure: Anti-human Fc gamma specific antibody (Jackson Immuno Research, Lot no. 124448, Code. 109-008-098) was immobilized onto the sensor chip using amine coupling method. Four antibodies secreted to the culture medium plus the parental antibody were injected and captured by anti-human Fc antibody via Fc (capture phase) individually. After equilibration, IL-17 was injected for 300 seconds (association phase) followed by the injection of running buffer for 1200s (dissociation phase). Responses of reference flow cell (flow cell 1) were subtracted from those of humanized antibodies flow cells during each cycle. The surface was regenerated before the injection of another humanized antibody. The process was repeated until all antibodies are analyzed. The off-rates of humanized antibodies were obtained from fitting the experimental data locally to 1:1 interaction model using the Biacore T200 evaluation software. The antibodies were ranked by their dissociation rate constants (off-rates, Kd). The binders that interact with IL-17 with similar affinity to parental antibody were selected.
In general terms: In SPR one partner is held on a chip, and binding of the other changes the refractive index at the surface.

B1: humanized anti-IL17A/F antibody VH1-1/VL2-1 (antibody, V domains shown)
VH: QFQLVQSGAEVKKPGASVKVSCKASGYTFTDYNLNWVRQAPGKGLEWMGVIHPDYGTTSYNQKFKDRVTMTVDTSTSTVYMELSSLRSEDTAVYYCVRYDYGDAMDYWGQGTLVTVSS
VL: DIVMTQTPLSSSVTLGQPASISCRSSQSLVHSNGNTYLHWLQQRPGQPPRLLIYKVSNRFSGVPDRFSGSGAGTDFTLKISRVEAEDVGVYYCSQSTHVPLTFGQGTKLEIK
notes: It was tested as a humanized IgG captured through its Fc by an anti-human Fc antibody
A word on the Kd: it is the free concentration of one partner at which half of the binding sites on the other are occupied at equilibrium, for simple one-to-one binding. A higher Kd goes with a looser complex. For orientation: koff means a measure of how fast the partners let go of each other. The low end stands for a long-lived complex, the high end for a short-lived complex. For orientation: kon means the rate constant with which the complex forms. Low readings indicate slower complex formation, high ones faster complex formation. Take B1: binding was characterised by a dissociation constant (Kd) of 840 pM, the koff stood at 0.0018 s⁻¹ and the kon was 2.2e+06 M⁻¹ s⁻¹.
